Substrate: NC(=O)C1=CN([C@@H]2O[C@H](COP(=O)(O)OP(=O)(O)OC[C@H]3O[C@@H](n4cnc5c(N)ncnc54)[C@H](O)[C@@H]3O)[C@@H](O)[C@H]2O)C=CC1
Experiment: cells, lysate or membranes
Format: biochemical, Arabidopsis thaliana
Conditions: rotenone-resistant activity in AtNDA2-transfected control fibroblasts, DCQ 50 μM, rotenone 8 μM, KCN 650 μM, 10 mM KH2PO4 pH 7.2, BSA, 37 °C

B1: AtNDA2 (Arabidopsis thaliana) (protein)
chain: SPAKIPNDVDRSQYSGLPPTREGEKPRVVVLGSGWAGCRLMKGIDTNLYDVVCVSPRNHMVFTPLLASTCVGTLEFRSVAEPISRIQPAISREPGSFFFLANCSRLDADAHEVHCETLTDGLNTLKPWKFKIAYDKLVIASGAEASTFGIHGVMENAIFLREVHHAQEIRRKLLLNLMLSDTPGISKEEKRRLLHCVVVGGGPTGVEFSGELSDFIMKDVRQRYAHVKDDIHVTLIEARDILSSFDDRLRRYAIKQLNKSGVRFVRGIVKDVQSQKLILDDGTEVPYGLLVWSTGVGPSPFVRSLGLPKDPTGRIGIDEWMRVPSVQDVFAIGDCSGYLETTGKPTLPALAQVAEREGKYLANLLNAIGKGNGGRANSAKEIELGVPFVYKHLGSMATIGRYKALVDLRESKDAKGISMTGFVSWFIWRSAYLTRVISWRNRFYVAINWFTTFVFGRDISRI
notes: lentiviral expression in human control fibroblasts (NHDF); permeabilised cells
B1 showed a Km of 9.7 ± 3.3 µM.
